Measured values from the RNAGym collection of RNA variant scans (doi:10.1073/pnas.2313332121).
Variants at the floor of the assay were thinned out.

B1: TPR 5TU (parent)
chain: GGAUCUUCUCGAUCUAACAAAAAAGACAAAUCUGCCACAAAGCUUGAGAGCAUCUUCGGAUGCAGAGGCGGCAGCCUUCGGUGGCGCGAUAGCGCCAACGUUCUCAACUAUGACACGCAAAACGCGUGCUCCGUUGAAUGGAGUUUAUCAUG

Variants of: B1
Experiment: polymerase ribozyme fitness, log enrichment relative to wild type (log ratio); higher = more active; in vitro selection for triplet polymerase activity
Outline: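 A single round of triplicate in vitro selection, including frozen incubation at −7 °C, was applied to PCR-built, transcribed mutant libraries of each subunit of a heterodimeric triplet polymerase ribozyme. Illumina sequencing of input and output libraries retained genotypes with ≥10 input reads and ≥1 read per output. Fitness is the base-2 logarithm of genotype enrichment divided by wild-type enrichment, from inverse-variance-weighted replicate averages.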

| Variant | polymerase ribozyme fitness (log ratio) |
| --- | --- |
| U6A G58C G94A | -0.942 |
| U6A A39U U101G C118G | ≤ -4.2 |
| U6G A73U G81C A98C C99U U144C | -3.62 |
| U6A A29U G81A G92C C114U | ≤ -4.2 |
| U6A U44A C57G G70A G80A C85U G126U C131G | ≤ -4.2 |
| U6C C96G C105U | -0.764 |
| C5U U82A C103G A113U A137C U148A | ≤ -4.2 |
| U6A A28G A73G C93G C99A C131A | -4.19 |
| U6A A16C A20G G62C A91U A110U | ≤ -4.2 |
| U7A A24C A47C U109C A120U | ≤ -4.2 |
| U6G C8G | -3.65 |
| U6G U13G A41U A52C G133U A138G U148G | ≤ -4.2 |
| U6A A60G C76A U144C | -0.452 |
| U6G A20U C43U A47U G59A G65C A73C G88U C96A A142G | ≤ -4.2 |
| U6C A19U A60C C87A A91U U134G | ≤ -4.2 |
| U6C C38U C75G U82A A107G A120G G133A U134A | ≤ -4.2 |
| U6C G48C G65A U78A G80A G88C A106G U127C G152U | ≤ -4.2 |
| U6G C54U G81A U135G | -3.31 |
| U6C C18U G59C A66U A73C U101G U139C U144A | ≤ -4.2 |
| U6A A60C A142G | -3.03 |
| U6G C18G C36U C96G A98G | -2.92 |

| Variant | polymerase ribozyme fitness (log ratio) |
| --- | --- |
| C5U U56A C57A C85G | -0.724 |
| U6G A37G C38G C95U C116U G136U U139A U146C | ≤ -4.2 |
| U7A A22C C85U | -4.04 |
| U6A A106G G117C A147U | -0.278 |
| U6G G94C C123A | 0.0628 |
| U6A A17U G65A G83A G84U C87A G100A G141A | ≤ -4.2 |
| U6C G70A C76G C87A G88A C116A | ≤ -4.2 |
| U6G A16U C18U G67C G88C | ≤ -4.2 |
| U6A A12G A17C G25C U55G A89G | -3.61 |
| U6G G50U C85U C116U G152U | -3.7 |
| U6G C43A A52C C85A A98U A113C | ≤ -4.2 |
| U6C C85G | -2.95 |
| U6C G117C | -0.247 |
| U6G C10G | -3.01 |
| U6G G50C U56A G65A A73C C96U U139C | ≤ -4.2 |
| U6A G86U | -1.41 |
| U6G A120C G136C | -3.69 |
| U6G C18G A66C G68C G88C G152C | ≤ -4.2 |
| U6G A47U U61G C69A | ≤ -4.2 |
| U6G C95U C96G | -0.705 |
| U6G G11A | -0.786 |

| Variant | polymerase ribozyme fitness (log ratio) |
| --- | --- |
| U6A A20C U31C C96A U127C | -1.86 |
| U6C A66C C72A U77C U82A U111C G126A | ≤ -4.2 |
| U6C G83A C114U | -2.57 |
| U6A C93U | -1.6 |
| U6A C93G | -3.92 |
| U7A A26U C32G A49C G50A G83U | ≤ -4.2 |
| U7A A29C A60U C76G C95U G133A G141A | ≤ -4.2 |
| U6G A20C A22G A26C C57A C87A A120G | ≤ -4.2 |
| U6A G50C C57A G83U C87A G94A | ≤ -4.2 |
| U6C C14G A40C A52U A91U | ≤ -4.2 |
| U7A A26G A47G A66U G71C C131U U139G | ≤ -4.2 |
| U6A C57G C96U G141C | -0.945 |
| U6C U7G G59U G68C U82C G136U | ≤ -4.2 |
| U6G A21C C75U U144A | -0.201 |
| U6G C79A G84C G152A | ≤ -4.2 |
| U6A A91C | ≤ -4.2 |
| U6G A17U A21U A49C C51U C79U G84A C114G | ≤ -4.2 |
| C5U U6G C14U A20C A26U A37C A66U A120G | ≤ -4.2 |
| U6G G88A | -4.11 |
| U6A A28G G59A C93U C99G C108A G140A G141U | ≤ -4.2 |
| U6A C51A G58C C63G C93G U104G U145A U148C | ≤ -4.2 |

| Variant | polymerase ribozyme fitness (log ratio) |
| --- | --- |
| U6A C18U A20C A22C U44C U55A C87A | ≤ -4.2 |
| U6G C8G C18U C54U C131U | -3.56 |
| U7A A24G C32A G88C C99G U104G G140C | -4.07 |
| C5U G46A A52G C85U A107U C118A A137U | ≤ -4.2 |
| U6C C35U G59A A66C G84U C93U A98U G100A A106C A142C | ≤ -4.2 |
| U6A U13G C96A C105U | -2.15 |
| U6A A16C C27U U31G A52C C54G C118U | ≤ -4.2 |
| U6G G46A A113U C125U G136U U146C | ≤ -4.2 |
| U6G A40C | 1.13 |
| U6C A23G U61A | ≤ -4.2 |
| U6A U53A G86A A91C G128C | ≤ -4.2 |
| U6G G80A U82G G141U | 0.34 |
| U6C A24G U31A A52C C87U U90G G92U C93A | ≤ -4.2 |
| U6C C8U A17U A39G G83A U101A | ≤ -4.2 |
| U6A C10A U31A A49C U53A C76G G81A G92A A106G G117A | ≤ -4.2 |
| U6G A24U C79A G84U C85U G117U G141A | ≤ -4.2 |
| U6G A26U C93U | -2.39 |
| U6G U31C U55A C95U A98G G141C | -1.61 |
| U6C G124C C129A | -4.16 |
| U6C U31C A52U G58A C95G U145A | -2.9 |
| U6A U15G A16U G74A U82G C95U | ≤ -4.2 |
